Our source for the EC50, binding result and blocking titer values is patent US20240402174A1 (Takeda / Millennium, published 2024).

Residue numbers refer to the chain shown, from its start.

Assay [1] concerns the target T1, GII.4/Den Haag VLP (norovirus Hu/GII.4/DenHaag89/2006/NL, UniProt P54635 1-539).
T1 construct: also called Hu/GII.4/DenHaag89/2006/NL
T1 chain: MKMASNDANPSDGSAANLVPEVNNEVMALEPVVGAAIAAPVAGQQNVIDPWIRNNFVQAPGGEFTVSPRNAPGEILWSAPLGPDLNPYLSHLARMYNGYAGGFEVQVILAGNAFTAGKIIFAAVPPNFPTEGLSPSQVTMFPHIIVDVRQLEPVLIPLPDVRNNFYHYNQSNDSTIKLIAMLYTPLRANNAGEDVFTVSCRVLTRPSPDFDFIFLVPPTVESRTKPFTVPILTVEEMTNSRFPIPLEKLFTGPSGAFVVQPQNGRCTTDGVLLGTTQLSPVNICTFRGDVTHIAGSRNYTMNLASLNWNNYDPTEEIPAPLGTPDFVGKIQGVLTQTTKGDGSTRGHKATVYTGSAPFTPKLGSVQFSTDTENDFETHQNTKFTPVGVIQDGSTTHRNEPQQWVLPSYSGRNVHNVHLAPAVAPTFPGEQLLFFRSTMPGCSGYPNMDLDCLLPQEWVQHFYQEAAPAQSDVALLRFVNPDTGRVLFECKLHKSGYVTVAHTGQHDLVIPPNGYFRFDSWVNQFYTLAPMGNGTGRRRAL
Briefly: multiplex microsphere immunoassay.

The next assay deals with T2, GII.4/Yerseke VLP (norovirus Hu/GII.4/Yerseke38/2006/NL, UniProt P54635 1-539).
T2 construct: also called Hu/GII.4/Yerseke38/2006/NL
T2 chain: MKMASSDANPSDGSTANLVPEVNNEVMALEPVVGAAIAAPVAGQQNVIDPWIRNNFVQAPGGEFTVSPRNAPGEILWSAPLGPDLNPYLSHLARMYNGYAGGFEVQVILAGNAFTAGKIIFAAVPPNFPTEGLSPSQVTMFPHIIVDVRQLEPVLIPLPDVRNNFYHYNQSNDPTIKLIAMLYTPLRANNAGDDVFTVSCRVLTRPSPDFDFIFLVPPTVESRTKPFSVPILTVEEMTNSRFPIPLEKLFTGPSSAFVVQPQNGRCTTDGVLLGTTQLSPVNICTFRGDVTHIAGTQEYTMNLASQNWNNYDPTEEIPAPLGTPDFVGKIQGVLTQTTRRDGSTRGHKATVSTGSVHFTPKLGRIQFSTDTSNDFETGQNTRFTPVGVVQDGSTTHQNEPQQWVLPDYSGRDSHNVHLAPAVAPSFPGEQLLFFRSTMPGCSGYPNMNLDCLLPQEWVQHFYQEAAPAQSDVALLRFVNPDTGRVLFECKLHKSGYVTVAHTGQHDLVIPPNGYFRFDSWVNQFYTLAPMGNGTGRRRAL
The assay can be described thus: multiplex microsphere immunoassay.

The next assay has as its target T3, GII.17/2015 VLP (norovirus Hu/GII.17/HKG/2015/CUHK-NS-513).
T3 construct: also called Hu/GII.17/HKG/2015/CUHK-NS-513
T3 chain: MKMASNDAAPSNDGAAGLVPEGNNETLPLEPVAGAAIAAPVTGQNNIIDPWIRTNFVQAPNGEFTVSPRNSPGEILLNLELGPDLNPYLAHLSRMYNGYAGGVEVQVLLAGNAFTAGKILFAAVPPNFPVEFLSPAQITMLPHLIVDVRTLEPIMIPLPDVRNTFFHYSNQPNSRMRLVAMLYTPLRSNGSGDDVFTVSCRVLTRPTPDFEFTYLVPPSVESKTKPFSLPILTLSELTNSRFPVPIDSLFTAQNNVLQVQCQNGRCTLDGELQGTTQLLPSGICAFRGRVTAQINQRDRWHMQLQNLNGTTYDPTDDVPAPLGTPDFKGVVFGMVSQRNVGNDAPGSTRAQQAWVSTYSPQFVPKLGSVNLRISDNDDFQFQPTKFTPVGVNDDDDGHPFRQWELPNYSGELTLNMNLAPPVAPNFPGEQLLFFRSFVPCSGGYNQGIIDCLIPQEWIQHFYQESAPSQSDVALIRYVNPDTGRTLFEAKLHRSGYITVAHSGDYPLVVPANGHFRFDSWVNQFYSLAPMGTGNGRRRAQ
The assay can be described thus: multiplex microsphere immunoassay.

In assay [2] the target is T1, GII.4/Den Haag VLP. The assay can be described thus: PGM blockade assay, serially diluted mAb.
Procedure: (§1) Plates were washed 3 times with PBST before use. […] The mixture was transferred to the PGM-coated plates including VLP-only controls and incubation carried out for 1 h at 22° C. or 37° C. Following 3 washes with PBST, detection antibody specific for the corresponding VLP was added and the plates were incubated at room temperature for 1 h and then washed 3 times with PBST. […] Following 3 washes, enzyme substrate (ABTS, KPL) was added and allowed to react for 12 min at room temperature. ABTS Peroxidase Stop Solution (KPL) was then added and plates were read at a wavelength of 450 nm in a Molecular Devices plate reader using SoftMax Pro Software (Molecular Devices, Downingtown, PA, USA) to obtain the Optical Density (GD) of each well.
(§2) The following, day corresponding dilutions incubated with VLPs were transferred to the PGM-coated plates. The OD data was curve fit and blocking titers were calculated as the supernatant dilution interpolated at 1/2 the maximum OD for the plate. The blocking titers represent the supernatant dilution that produces a 50% reduction in VLP binding to PGM. The maximum OD for the plate was calculated from the VLP only control.
The target of the next assay is T4, GII.4/Consensus VLP (norovirus GII.4 consensus sequence, UniProt P54635 1-539).
T4 chain: T2 chain with S228T, S255G, R340G, R364S, I365V, R382K, S425T
Briefly: PGM blockade assay, serially diluted mAb.

Procedure for GII.4/Consensus VLP: as §1, §2

B1: human mAb 1431 (antibody, V domains shown)
VH: QVQLVQSGGGLVQPGGSLRLSCAASGFAFSNHGMHWVRQAPGKGLEWLSYISGSTGAIHYANSVKGRFTISRDNARNSLDLQMNSLGDEDTAVYYCARDGPRPDGTGYAGPSNDYWGQGTLVSVSS
VL: EIVLTQSPASLSLSPGERATLSCKASRSISIYLAWYQQKPGQAPRLLIYDASYRAIGIPARFSGSGSGTDFTLTISNLEPEDFAVYYCQHRSSWPALTFGGGTKVEI
notes: also called A1431
For B1, the concentration giving a half-maximal response (EC50) (commonly the concentration at which the effect is half-maximal) came to 0.024 µg/mL with GII.4/Den Haag VLP [1] and 0.007 µg/mL with GII.4/Yerseke VLP. Besides, the binding result with GII.17/2015 VLP is “no binding”. Moreover, the blocking titer came to 5720 with GII.4/Den Haag VLP [2] and 139000 with GII.4/Consensus VLP.

B2: human mAb 1227 (antibody, V domains shown)
VH: QVQLVQSGGGMVQPGGSLSLSCAASGFTLSNYAMTWVRQAPGKGLEWVSSIGGSGGTTYYADSVKGRFTISRDSSMNTLYLQMSNLRAGDTAVYYCAKDKTRTLRLGYSGMDVWGQGTTVTVSS
VL: DIRLTQSPSSLSASVGDRVTITCRASQSISSYLNWYQQKPGKAPDLLIYGASSLQSGVPSRFSGSGSGTDFTLTISSLQPEDFGNYYCQQSFSTPRTFGQGTKVEL
notes: also called A1227
As to B2, the EC50 with GII.4/Den Haag VLP [1] was 0.014 µg/mL; with GII.4/Yerseke VLP, 0.002 µg/mL; in the assay with GII.17/2015 VLP it was 0.012 µg/mL. Also, the blocking titer with GII.4/Den Haag VLP [2] is 162; with GII.4/Consensus VLP, 447.
